Laboratory results: patent US20200079833A1 (AstraZeneca / MedImmune, published 2020)
Starred links: 1 amine or outer side, 2 acyl side, 3 side chain; linkers in the order of their positions; H or OH if unused. Non-standard residues stand in square brackets, D forms with d. Groups on a side chain read outwards from the residue. Primed or numbered codes have the meaning given here. No end group written: not given here. *: point of attachment. Dodecylbenzoate = dodecylbenzoyl lipid group; γGlu = O=C(O)[C@H](CCC(=O)[*:2])N[*:1]; αMeF = C[C@](N)(Cc1ccccc1)C(=O)O; αMeK = C[C@](N)(CCCCN)C(=O)O; Lauroyl = CCCCCCCCCCCC(=O)*; αMeS = C[C@](N)(CO)C(=O)O; PEG2′ = not defined here; Aib = CC(C)(N)C(=O)O; Ahx = NCCCCCC(=O)O

T1: glucose-dependent insulinotropic peptide (gastric inhibitory polypeptide) receptor (GIPR) (human, UniProt P48546 22-466)
T1 sequence (looked up): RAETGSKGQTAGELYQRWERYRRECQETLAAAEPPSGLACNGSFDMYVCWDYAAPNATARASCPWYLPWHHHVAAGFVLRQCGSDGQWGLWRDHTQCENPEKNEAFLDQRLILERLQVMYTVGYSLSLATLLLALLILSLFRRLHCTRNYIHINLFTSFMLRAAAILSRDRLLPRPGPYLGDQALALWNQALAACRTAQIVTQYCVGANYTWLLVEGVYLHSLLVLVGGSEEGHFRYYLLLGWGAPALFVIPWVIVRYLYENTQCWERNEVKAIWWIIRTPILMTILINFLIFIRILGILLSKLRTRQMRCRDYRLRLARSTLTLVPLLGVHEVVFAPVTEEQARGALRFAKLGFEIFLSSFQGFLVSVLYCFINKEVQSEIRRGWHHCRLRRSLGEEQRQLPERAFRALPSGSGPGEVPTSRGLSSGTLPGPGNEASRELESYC

B1: SEQ ID NO 168 (peptide)
peptide: H[Aib]EGS[αMeF]TSDV[αMeS]S[αMeF]LEGEAA[αMeK]E[αMeF]IA[αMeF]VVK([Ahx-Ahx-Lauroyl])GG-NH2
modifications: N-terminus assumed
SMILES: CCCCCCCCCCCC(=O)NCCCCCC(=O)NCCCCCC(=O)NCCCC[C@H](NC(=O)[C@@H](NC(=O)[C@@H](NC(=O)[C@](C)(Cc1ccccc1)NC(=O)[C@H](C)NC(=O)[C@@H](NC(=O)[C@](C)(Cc1ccccc1)NC(=O)[C@H](CCC(=O)O)NC(=O)[C@](C)(CCCCN)NC(=O)[C@H](C)NC(=O)[C@H](C)NC(=O)[C@H](CCC(=O)O)NC(=O)CNC(=O)[C@H](CCC(=O)O)NC(=O)[C@H](CC(C)C)NC(=O)[C@](C)(Cc1ccccc1)NC(=O)[C@H](CO)NC(=O)[C@](C)(CO)NC(=O)[C@@H](NC(=O)[C@H](CC(=O)O)NC(=O)[C@H](CO)NC(=O)[C@@H](NC(=O)[C@](C)(Cc1ccccc1)NC(=O)[C@H](CO)NC(=O)CNC(=O)[C@H](CCC(=O)O)NC(=O)C(C)(C)NC(=O)[C@@H](N)Cc1c[nH]cn1)[C@@H](C)O)C(C)C)[C@@H](C)CC)C(C)C)C(C)C)C(=O)NCC(=O)NCC(N)=O
B2: SEQ ID NO 169 (peptide)
peptide: H[Aib]EGS[αMeF]TSDV[αMeS]S[αMeF]LEGEAA[αMeK]E[αMeF]IA[αMeF]VVK([Ahx-Ahx-Ahx-Lauroyl])GG-NH2
modifications: N-terminus assumed
SMILES: CCCCCCCCCCCC(=O)NCCCCCC(=O)NCCCCCC(=O)NCCCCCC(=O)NCCCC[C@H](NC(=O)[C@@H](NC(=O)[C@@H](NC(=O)[C@](C)(Cc1ccccc1)NC(=O)[C@H](C)NC(=O)[C@@H](NC(=O)[C@](C)(Cc1ccccc1)NC(=O)[C@H](CCC(=O)O)NC(=O)[C@](C)(CCCCN)NC(=O)[C@H](C)NC(=O)[C@H](C)NC(=O)[C@H](CCC(=O)O)NC(=O)CNC(=O)[C@H](CCC(=O)O)NC(=O)[C@H](CC(C)C)NC(=O)[C@](C)(Cc1ccccc1)NC(=O)[C@H](CO)NC(=O)[C@](C)(CO)NC(=O)[C@@H](NC(=O)[C@H](CC(=O)O)NC(=O)[C@H](CO)NC(=O)[C@@H](NC(=O)[C@](C)(Cc1ccccc1)NC(=O)[C@H](CO)NC(=O)CNC(=O)[C@H](CCC(=O)O)NC(=O)C(C)(C)NC(=O)[C@@H](N)Cc1c[nH]cn1)[C@@H](C)O)C(C)C)[C@@H](C)CC)C(C)C)C(C)C)C(=O)NCC(=O)NCC(N)=O

Tests used:
Experiment in all cases: cell-based or functional assay
GLP-1 receptor (GLP-1R) = GLP-1 receptor (GLP-1R) (human, UniProt P43220 24-463)
glucagon receptor (GCGR) = glucagon receptor (GCGR) (human, UniProt P47871 26-477)
glucagon receptor (GCGR), sequence (P47871 26-477): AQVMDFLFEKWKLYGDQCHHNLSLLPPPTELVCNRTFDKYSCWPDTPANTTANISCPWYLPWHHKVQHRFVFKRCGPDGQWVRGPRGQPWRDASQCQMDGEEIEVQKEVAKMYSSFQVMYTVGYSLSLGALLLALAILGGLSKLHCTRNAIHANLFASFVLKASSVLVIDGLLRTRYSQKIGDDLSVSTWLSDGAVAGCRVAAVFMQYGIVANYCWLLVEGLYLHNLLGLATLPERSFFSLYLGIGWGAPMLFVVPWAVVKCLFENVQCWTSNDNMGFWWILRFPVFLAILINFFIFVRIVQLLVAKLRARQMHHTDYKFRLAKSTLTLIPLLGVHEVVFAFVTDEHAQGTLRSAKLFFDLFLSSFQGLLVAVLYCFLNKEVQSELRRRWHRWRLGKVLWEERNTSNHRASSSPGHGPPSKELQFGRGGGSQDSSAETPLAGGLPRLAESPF

[1] = molecular target: T1, glucose-dependent insulinotropic …

| Binder | Primary assay EC50 (cAMP), GLP-1R n1 (GLP-1 receptor (GLP-1R)) | Primary assay EC50 (cAMP), GLP-1R n2 (GLP-1 receptor (GLP-1R)) | Primary assay EC50 (cAMP), Mean pM GLP-1R (GLP-1 receptor (GLP-1R)) | Primary assay EC50 (cAMP), Gluc-R, first run (glucagon receptor (GCGR)) | Primary assay EC50 (cAMP), Gluc-R, second run (glucagon receptor (GCGR)) | Primary assay EC50 (cAMP), GIP-R, first run [1] | Primary assay EC50 (cAMP), GIP-R, second run [1] |
| --- | --- | --- | --- | --- | --- | --- | --- |
| H[Aib]EGS[αMeF]TSDV[αMeS]S[αMeF]LEGEAA[αMeK]E[αMeF]IA[αMeF]VVK([Ahx-Dodecylbenzoate])GG-NH2 [SEQ ID NO 176] | 0.023 nM | 0.0096 nM | 16 pM | 27 nM | 27 nM | 27 nM | 27 nM |
| H[Aib]EGS[αMeF]TSDV[αMeS]S[αMeF]LEGEAA[αMeK]E[αMeF]IA[αMeF]VVK([Ahx-Ahx-Ahx-Dodecylbenzoate])GG-NH2 [SEQ ID NO 178] | 0.005 nM | 0.0023 nM | 3.6 pM | 26 nM | 26 nM | 26 nM | 26 nM |
| H[Aib]EGS[αMeF]TSDV[αMeS]S[αMeF]LEGEAA[αMeK]E[αMeF]IA[αMeF]VVK([γGlu-Dodecylbenzoate])GG-NH2 [SEQ ID NO 173] | 0.021 nM | 0.0092 nM | 15.1 pM | 27 nM | 27 nM | 27 nM | 27 nM |
| H[Aib]EGS[αMeF]TSDV[αMeS]S[αMeF]LEGEAA[αMeK]E[αMeF]IA[αMeF]VVK([PEG2′-PEG2′-Lauroyl])GG-NH2 [SEQ ID NO 171] | 0.0025 nM | 0.0012 nM | 1.9 pM | 27 nM | 27 nM | 27 nM | 27 nM |
| H[Aib]EGS[αMeF]TSDV[αMeS]S[αMeF]LEGEAA[αMeK]E[αMeF]IA[αMeF]VVK([γGlu-γGlu-γGlu-Dodecylbenzoate])GG-NH2 [SEQ ID NO 175] | 0.023 nM | 0.012 nM | 17.4 pM | 26 nM | 26 nM | 26 nM | 26 nM |
| H[Aib]EGS[αMeF]TSDV[αMeS]S[αMeF]LEGEAA[αMeK]E[αMeF]IA[αMeF]VVK([γGlu-γGlu-Dodecylbenzoate])GG-NH2 [SEQ ID NO 174] | 0.022 nM | 0.011 nM | 16.3 pM | 26 nM | 26 nM | 26 nM | 26 nM |
| H[Aib]EGS[αMeF]TSDV[αMeS]S[αMeF]LEGEAA[αMeK]E[αMeF]IA[αMeF]VVK([PEG2′-PEG2′-PEG2′-Lauroyl])GG-NH2 [SEQ ID NO 172] | 0.0015 nM | 0.00072 nM | 1.1 pM | 26 nM | 26 nM | 26 nM | 26 nM |
| H[Aib]EGS[αMeF]TSDV[αMeS]S[αMeF]LEGEAA[αMeK]E[αMeF]IA[αMeF]VVK([Ahx-Ahx-Dodecylbenzoate])GG-NH2 [SEQ ID NO 177] | 0.0064 nM | 0.003 nM | 4.7 pM | 27 nM | 27 nM | 27 nM | 27 nM |
| B1 | 0.0051 nM | 0.0026 nM | 3.8 pM | 28 nM | 28 nM | 28 nM | 28 nM |
| H[Aib]EGS[αMeF]TSDV[αMeS]S[αMeF]LEGEAA[αMeK]E[αMeF]IA[αMeF]VVK([PEG2′-Lauroyl])GG-NH2 [SEQ ID NO 170] | 0.008 nM | 0.0045 nM | 6.2 pM | 28 nM | 28 nM | 28 nM | 28 nM |
| H[Aib]EGS[αMeF]TSDV[αMeS]S[αMeF]LEGEAA[αMeK]E[αMeF]IA[αMeF]VVK([PEG2′-Dodecylbenzoate])GG-NH2 [SEQ ID NO 179] | 0.011 nM | 0.0044 nM | 7.9 pM | 27 nM | 27 nM | 27 nM | 27 nM |
| B2 | 0.0034 nM | 0.0017 nM | 2.6 pM | 27 nM | 27 nM | 27 nM | 27 nM |
